Measured values taken from the RNAGym collection of RNA variant scans (doi:10.1093/molbev/msab373).

B1: Azoarcus group I ribozyme (parent)
chain: GUGCCUUGCGCCGGGAAACCACGCAAGGGAUGGUGUCAAAUUCGGCGAAACCUAAGCGCCCGCCCGGGCGUAUGGCAACGCCGAGCCAAGCUUCGGCGCCUGCGCCGAUGAAGGUGUAGAGACUAGACGGCACCCACCUAAGGCAAACGCUAUGGUGAAGGCAUAGUCCAGGGAGUGGCGAAAGUCACACAAACCGG

Variants of: B1
Assay: reverse-splicing fitness (ratio to wild type); higher = more active; in vitro selection; Mg2+ level not given
Summary of the method: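 An in vitro group I ribozyme library with randomized positions was T7-transcribed and gel-purified. In triplicate, 10 pmol RNA in EPPS pH 7.5 was reacted with 50 pmoles of a 30-nt RNA substrate for 1 h at 37 °C across several added MgCl2 levels (1–48 mM), then stopped with EDTA. Products were reverse transcribed from a substrate-complementary primer, PCR-amplified and sequenced (HiSeq 4000). Fitness is a variant's read proportion after selection over that before, normalised to wild type.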

In order of rising reverse-splicing fitness:
1. GUGCCUUGCGCCGGGAAACCACGCAAGGGAUGGUGUCAAAUUCGGCGAAACCUAAGCGCCCGCCCGGGCGUAUGGCAACGCGGAGCCAAGCUUCGGCGCCUGCGCCGAUGCAGGUGUAGUGACUAGACGGCACCCACCUAAGGCUAACGGUAUGGUGAAGGCAUAGUCUAGGGAGGGGCGAAAGUCACACAAACCGG [C82G A111C A120U A145U C150G C169U U176G]  0.00234
2. GUGCCUUGCGCCGGGAAACCACGCAAGGGAUGGUGUCAAAUUCGGCGAAACCUAAGCGCCCGCCCGGGCGUAUGGCAACGCGGAGCCAAGCUUCGGCGCCUGCGCCGAUGCAGGUGUAGUGACUAGACGGCACCCACCUAAGGCUAACGGUAUGGUGAAGGCAUAGUCGAGGGAGGGGCGAAAGUCACACAAACCGG [C82G A111C A120U A145U C150G C169G U176G]  0.00242
3. GUGCCUUGCGCCGGGAAACCACGCAAGGGAUGGUGUCAAAUUCGGCGAAACCUAAGCGCCCGCCCGGGCGUAUGGCAACGCGGAGCCAAGCUUCGGCGCCUGCGCCGAUGCAGGUGUAGUGACUAGACGGCACCCACCUAAGGCUAACGGUAUGGUGAAGGCAUAGUCCAGGGAGGGGCGAAAGUCACACAAACCGG [C82G A111C A120U A145U C150G U176G]  0.00265
4. GUGCCUUGCGCCGGGAAACCACGCAAGGGAUGGUGUCAAAUUCGGCGAAACCUAAGCGCCCGCCCGGGCGUAUGGCAACGCGGAGCCAAGCUUCGGCGCCUGCGCCGAUGCAGGUGUAGUGACUAGACGGCACCCACCUAAGGCUAACGAUAUGGUGAAGGCAUAGUCCAGGGAGGGGCGAAAGUCACACAAACCGG [C82G A111C A120U A145U C150A U176G]  0.00269
5. GUGCCUUGCGCCGGGAAACCACGCAAGGGAUGGUGUCAAAUUCGGCGAAACCUAAGCGCCCGCCCGGGCGUAUGGCAACGCGGAGCCAAGCUUCGGCGCCUGCGCCGAUGCAGGUGUAGUGACUAGACGGCACCCACCUAAGGCUAACGGUAUGGUGAAGGCAUAGUCGAGGGAGAGGCGAAAGUCACACAAACCGG [C82G A111C A120U A145U C150G C169G U176A]  0.00287
6. GUGCCUUGCGCCGGGAAACCACGCAAGGGAUGGUGUCAAAUUCGGCGAAACCUAAGCGCCCGCCCGGGCGUAUGGCAACGCGGAGCCAAGCUUCGGCGCCUGCGCCGAUGCAGGUGUAGUGACUAGACGGCACCCACCUAAGGCUAACGGUAUGGUGAAGGCAUAGUCUAGGGAGCGGCGAAAGUCACACAAACCGG [C82G A111C A120U A145U C150G C169U U176C]  0.00292
7. GUGCCUUGCGCCGGGAAACCACGCAAGGGAUGGUGUCAAAUUCGGCGAAACCUAAGCGCCCGCCCGGGCGUAUGGCAACGCGGAGCCAAGCUUCGGCGCCUGCGCCGAUGCAGGUGUAGUGACUAGACGGCACCCACCUAAGGCUAACGGUAUGGUGAAGGCAUAGUCUAGGGAGAGGCGAAAGUCACACAAACCGG [C82G A111C A120U A145U C150G C169U U176A]  0.00309
8. GUGCCUUGCGCCGGGAAACCACGCAAGGGAUGGUGUCAAAUUCGGCGAAACCUAAGCGCCCGCCCGGGCGUAUGGCAACGCGGAGCCAAGCUUCGGCGCCUGCGCCGAUGCAGGUGUAGUGACUAGACGGCACCCACCUAAGGCUAACGGUAUGGUGAAGGCAUAGUCGAGGGAGCGGCGAAAGUCACACAAACCGG [C82G A111C A120U A145U C150G C169G U176C]  0.00317
9. GUGCCUUGCGCCGGGAAACCACGCAAGGGAUGGUGUCAAAUUCGGCGAAACCUAAGCGCCCGCCCGGGCGUAUGGCAACGCGGAGCCAAGCUUCGGCGCCUGCGCCGAUGCAGGUGUAGUGACUAGACGGCACCCACCUAAGGCUAACGGUAUGGUGAAGGCAUAGUCUAGGGAGUGGCGAAAGUCACACAAACCGG [C82G A111C A120U A145U C150G C169U]  0.00326
10. GUGCCUUGCGCCGGGAAACCACGCAAGGGAUGGUGUCAAAUUCGGCGAAACCUAAGCGCCCGCCCGGGCGUAUGGCAACGCGGAGCCAAGCUUCGGCGCCUGCGCCGAUGCAGGUGUAGUGACUAGACGGCACCCACCUAAGGCUAACGUUAUGGUGAAGGCAUAGUCGAGGGAGAGGCGAAAGUCACACAAACCGG [C82G A111C A120U A145U C150U C169G U176A]  0.00347
11. GUGCCUUGCGCCGGGAAACCACGCAAGGGAUGGUGUCAAAUUCGGCGAAACCUAAGCGCCCGCCCGGGCGUAUGGCAACGCGGAGCCAAGCUUCGGCGCCUGCGCCGAUGCAGGUGUAGUGACUAGACGGCACCCACCUAAGGCUAACGGUAUGGUGAAGGCAUAGUCGAGGGAGUGGCGAAAGUCACACAAACCGG [C82G A111C A120U A145U C150G C169G]  0.00414
12. GUGCCUUGCGCCGGGAAACCACGCAAGGGAUGGUGUCAAAUUCGGCGAAACCUAAGCGCCCGCCCGGGCGUAUGGCAACGCGGAGCCAAGCUUCGGCGCCUGCGCCGAUGCAGGUGUAGUGACUAGACGGCACCCACCUAAGGCUAACGGUAUGGUGAAGGCAUAGUCAAGGGAGUGGCGAAAGUCACACAAACCGG [C82G A111C A120U A145U C150G C169A]  0.00457
13. GUGCCUUGCGCCGGGAAACCACGCAAGGGAUGGUGUCAAAUUCGGCGAAACCUAAGCGCCCGCCCGGGCGUAUGGCAACGCGGAGCCAAGCUUCGGCGCCUGCGCCGAUGCAGGUGUAGUGACUAGACGGCACCCACCUAAGGCUAACGAUAUGGUGAAGGCAUAGUCCAGGGAGAGGCGAAAGUCACACAAACCGG [C82G A111C A120U A145U C150A U176A]  0.00533
14. GUGCCUUGCGCCGGGAAACCACGCAAGGGAUGGUGUCAAAUUCGGCGAAACCUAAGCGCCCGCCCGGGCGUAUGGCAACGCGGAGCCAAGCUUCGGCGCCUGCGCCGAUGCAGGUGUAGUGACUAGACGGCACCCACCUAAGGCUAACGAUAUGGUGAAGGCAUAGUCCAGGGAGCGGCGAAAGUCACACAAACCGG [C82G A111C A120U A145U C150A U176C]  0.00583
15. GUGCCUUGCGCCGGGAAACCACGCAAGGGAUGGUGUCAAAUUCGGCGAAACCUAAGCGCCCGCCCGGGCGUAUGGCAACGCGGAGCCAAGCUUCGGCGCCUGCGCCGAUGCAGGUGUAGUGACUAGACGGCACCCACCUAAGGCUAACGGUAUGGUGAAGGCAUAGUCCAGGGAGCGGCGAAAGUCACACAAACCGG [C82G A111C A120U A145U C150G U176C]  0.0062
